{"source": "paper doi:10.1101/116368", "molecular_target": "STARD1^S195E mutant (human StAR domain, residues 66-285) (human) (UniProt P49675)", "experiment": "SEC", "data": [{"substance": "STARD1^S195E mutant (human StAR domain, residues 66-285) (from UniProt P49675 66-285) (domain or fragment)", "values": [{"measurement": "fraction of dimers", "result": "< 3", "unit": "%"}]}]}
